Activity (fold vs 4-mutation SPB) data for 1 substance are collected here from patent US20260022353.

In the data set the target is piggyBac transposase, 5 hyperactive mutations (Hyper) I30V,G165S,M226F,M282V,N538K (Trichoplusia ni?) (UniProt Q27026). Put plainly: cell_activity. Particulars: ~50% enhanced integration in K562 (p260); ~50% enhanced excision in 293T (p263).
Chain of UniProt Q27026 (Q27026 entry or part of it I30V G165S M226F M282V N538K): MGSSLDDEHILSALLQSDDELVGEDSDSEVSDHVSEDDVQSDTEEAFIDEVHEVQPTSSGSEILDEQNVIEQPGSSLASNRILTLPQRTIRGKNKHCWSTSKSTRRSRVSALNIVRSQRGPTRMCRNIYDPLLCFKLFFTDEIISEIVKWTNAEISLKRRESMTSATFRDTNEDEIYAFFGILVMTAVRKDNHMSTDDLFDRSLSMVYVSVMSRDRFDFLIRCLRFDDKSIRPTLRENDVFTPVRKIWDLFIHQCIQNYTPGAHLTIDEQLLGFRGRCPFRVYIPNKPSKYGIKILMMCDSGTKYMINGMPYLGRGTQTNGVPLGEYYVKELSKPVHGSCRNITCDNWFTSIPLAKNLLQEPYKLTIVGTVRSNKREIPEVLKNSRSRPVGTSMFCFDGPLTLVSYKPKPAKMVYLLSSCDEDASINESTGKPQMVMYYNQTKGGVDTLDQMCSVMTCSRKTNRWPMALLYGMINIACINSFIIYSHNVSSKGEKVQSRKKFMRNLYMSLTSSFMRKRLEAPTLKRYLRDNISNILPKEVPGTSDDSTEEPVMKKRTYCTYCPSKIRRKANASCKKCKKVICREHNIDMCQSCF

In the case of “piggyBac transposon with wild type LE and RE ITRs (dual reporter)”, the activity (fold vs 4-mutation SPB) is 1.5.
